This note sets out measurements from article PMC8564726, “Heterodimerization of H3K9 histone methyltransferases G9a and GLP activates methyl reading and writing capabilities” (The Journal of Biological Chemistry, 2021).

“Also recorded” adds a separate entry of the source.

In one data set the test system is H3_1–20 K9me2 peptide. In words: Fluorescence polarization binding to H3K9me2 peptide. The settings on record: listed as G9a. As to the method: (§1) Polarization assays with fluoresceinated H3_1–20 K9me1 or K9me2 peptides, 147 bp 601 DNA template, and core nucleosomes were performed and Kd values estimated as described ([11]) with the following modifications: The reaction buffer was 100 mM Tris pH 8, 100 mM KCl, 1 mM MgCl2, 20 μM ZnSO4, 10 mM BME, 0.1% NP-40. The concentration of peptides and nucleosomes was 150 nM and 200 nM for DNA. Polarization measurements were conducted on a Biotek Cytation 5 (peptide and nucleosome) or Molecular Devices Spectramax (DNA) plate reader with low-volume plates (Corning) in either 10 μl (peptide, nucleosome) or 40 μl (DNA) total volume.

The test system of data set [1] is H3K9me2 dimethylated mononucleosomes. Nature of the data set: Fluorescence polarization binding to H3K9me2 mononucleosome.
Excerpt: (§2) Histone proteins and nucleosomes were purified as described ([11], [26]) with modifications (see Supporting methods). For fluorescence polarization, nucleosomes were reconstituted with a 5ʹ fluoresceinated DNA template. H3K9 dimethylation was installed via Methyl-Lysine Analog (MLA) technology as described ([10], [26]). K9 MLA-monomethylated H3 was purchased from Active Motif. H3K27A was introduced by site-directed mutagenesis and purified as described ([26]).
as §1

In data set [2] the test system is H3K9me1 monomethylated mononucleosomes. In words: Fluorescence polarization binding to H3K9me1 mononucleosome.
Excerpt: as §2, §1

For the next data set, the system named is H3_1–20 K9me1 peptide. Nature of the data set: Fluorescence polarization binding to H3K9me1 peptide. The following applies: listed as G9a. As to the method: as §1
Background: Polarisation of emitted light reports the rotation of a fluorescent probe.

Data set [3] has as its target unmethylated (H3K9me0) mononucleosomes. Nature of the data set: Fluorescence polarization binding to unmethylated mononucleosome. The settings on record: 147 bp 601 DNA 5ʹ fluorescein-labeled nucleosomes, 150 nM, pH 8, 100 mM KCl, 0.1% NP-40, 95% CI (μM): G9a 6.4-8.6, G9a-GLP 5.6-7.6, GLP-GLP 17.4-41.5, read-out: Kd, unmethylated (me0) mononucleosome.
Excerpt: as §2, §1

Another data set concerns H3_1–20 peptide. Nature of the data set: H3 tail peptide methylation kinetics (multiple turnover). It counts as biochemical. The following applies: Michaelis–Menten, 9 μM 3H-SAM + 1000 μM cold SAM, 0.4 to 0.8 μM enzyme, pH 8, duplicates, 95% CI: G9a-G9a 24.6-34.6, GLP-GLP 9.5-15.5, G9a-GLP 26.0-34.5, G9aS-GLP 20.5-28.3, listed as G9a. The protocol: Substrate peptides or nucleosomes were mixed in a solution containing 9 μM tritiated S-Adenosyl Methionine (SAM, PerkinElmer) cofactor, and reactions were initiated upon addition of 0.4 to 0.8 μM enzyme. Peptide reactions were supplemented with 1000 μM cold SAM to fully saturate the SAM-binding pocket (Fig. S3). Due to signal limitations, nucleosome reactions were not supplemented with SAM (see Supporting methods). Reactions were run in 100 mM Tris pH 8, 100 mM KCl, 1 mM MgCl2, 20 μM ZnSO4, 10 mM BME and quenched with laemmli buffer. Peptide reactions were performed as described ([11]). Nucleosome methylation reactions were read out via autoradiography as described ([11]), except that proteins were separated on an 18% SDS PAGE gel.
All methylation reactions (except Fig. S4A) were performed under Multiple Turnover conditions ([25]). To determine initial rates, methylation time courses were traced at various concentrations of H3K9-containing substrate while keeping the concentration of SAM and enzyme constant. Plots of initial rate versus concentration H3K9 substrate measured in duplicate or triplicate were fit to V = Vmax∗[S]/(KM + [S]) using Prism software to extract KM and kcat (or kobs) values as well as the 95% confidence interval bounds of the fit. See Supporting methods for special considerations for nucleosome kinetics.

B1: G9a-G9a: homodimer of G9a truncated to the C-terminal ANK and SET domains (ANK-SET) (protein)
chain: MRGLPRGRGLMRARGRGRAAPTGGRGRGRGGAHRGRGRPRSLLSLPRAQASWAPQLPAGLTGPPVPCLPSQGEAPAEMGALLLEKEPRGAAERVHSSLGDTPQSEETLPKANPDSLEPAGPSSPASVTVTVGDEGADTPVGAASLIGDEPESLEGDGGRIVLGHATKSFPSSPSKGGACPSRAKMSMTGAGKSPPSVQSLAMRLLSMPGAQGAATAGPEPSPATTAAQEGQPKVHRARKTMSKPSNGQPPIPEKRPPEVQHFRMSDDMHLGKVTSDVAKRRKLNSGSLSEDLGSAGGSGDIILEKGEPRPLEEWETVVGDDFSLYYDAYSVDERVDSDSKSEVEALAEQLSEEEEEEEEEEEEEEEEEEEEEEEEEDEESGNQSDRSGSSGRRKAKKKWRKDSPWVKPSRKRRKREPPRAKEPRGVNGVGSSGPSEYMEVPLGSLELPSEGTLSPNHAGVSNDTSSLETERGFEELPLCSCRMEAPKIDRISERAGHKCMATESVDGELLGCNAAILKRETMRPSSRVALMVLCEAHRARMVKHHCCPGCGYFCTAGTFLECHPDFRVAHRFHKACVSQLNGMVFCPHCGEDASEAQEVTIPRGDGGTPPIGTAAPALPPLAHDAPGRADTSQPSARMRGHGEPRRPPCDPLADTIDSSGPSLTLPNGGCLSAVGLPPGPGREALEKALVIQESERRKKLRFHPRQLYLSVKQGELQKVILMLLDNLDPNFQSDQQSKRTPLHAAAQKGSVEICHVLLQAGANINAVDKQQRTPLMEAVVNNHLEVARYMVQLGGCVYSKEEDGSTCLHHAAKIGNLEMVSLLLSTGQVDVNAQDSGGWTPIIWAAEHKHIDVIRMLLTRGADVTLTDNEENICLHWASFTGSAAIAEVLLNAQCDLHAVNYHGDTPLHIAARESYHDCVLLFLSRGANPELRNKEGDTAWDLTPERSDVWFALQLNRKLRLGVGNRAVRTEKIICRDVARGYENVPIPCVNGVDGEPCPEDYKYISENCETSTMNIDRNITHLQHCTCVDDCSSSNCLCGQLSIRCWYDKDGRLLQEFNKIEPPLIFECNQACSCWRSCKNRVVQSGIKVRLQLYRTAKMGWGVRALQTIPQGTFICEYVGELISDAEADVREDDSYLFDLDNKDGEVYCIDARYYGNISRFINHLCDPNIIPVRVFMLHQDLRFPRIAFFSSRDIRTGEELGFDYGDRFWDIKSKYFTCQCGSEKCKHSAEAIALEQSRLARLDPHPELLPDLSSLPPINT
B1: the “affinity for H3K9me2 peptide, in words” value in the data set with H3_1–20 K9me2 peptide is “no discernable affinity for me1 or me2 peptides; also recorded: does not recognize H3K9me1/2 peptides”. Also, the “binding to H3K9me2 nucleosomes, in words” value in data set [1] was “decreases compared with unmethylated nucleosomes”. Besides, the “binding to H3K9me1 nucleosomes, in words” value in data set [2] is “decreases compared with unmethylated nucleosomes”. The “affinity for H3K9me1 peptide, in words” value with H3_1–20 K9me1 peptide is recorded as “no discernable affinity for me1 or me2 peptides; also recorded: does not recognize H3K9me1/2 peptides”. For the same molecule, the dissociation constant Kd in data set [3] was in the range of 6 to 7 µM. Moreover, in the data set on H3_1–20 peptide, the “kcat, H3_1–20 peptide” value was roughly 0.55 s⁻¹.

For orientation: Kd means the equilibrium constant for the complex coming apart.
